From article PMC4384738

Target: WISp39 (UniProt Q9UIM3)
Assay: anti-GFP co-IP, Western blot
Details: reference: wild type; sites S2

- binding against the reference: lost
Substance: Coronin 1B (from UniProt Q9BR76) S2A
